Data as given in patent US20180031558A1, “BIOMARKERS OF ACUTE LIVER INJURY” (The Regents of the University of Michigan, priority 2014, published 2018).
“Also recorded” adds a separate entry of the source. Where two headings read alike, the source gives them in different places.

What was measured:
liver [1] = assay: FasL and APAP induced mouse liver injury, histological analysis of liver sections; assay type: in vivo; conditions: mice, intraperitoneal; FasL 0.15 μg/g, 4 h; APAP 700 mg/Kg, 8 h
Procedure: FIG. 4. CPS1 is released into serum during FasL and APAP induced mouse liver injury. Mice were injected with FasL (0.15 μg/g) and APAP (700 mg/Kg) and sacrificed after 4 h and 8 h, respectively. Liver damage was analyzed serologically, biochemically and histologically. Panel A: Immunoblots of serum CPS1, HMGB1 and caspase activation using total liver lysate. Coomassie stain of serum IgG heavy chain (just above the 50 kDa prominent species) and IgG light chain (25 kDa), and an actin blot of total liver lysates are included as loading controls. Serum ALT of the individual mice is also indicated (bottom of panel). Panel B: Hematoxylin and eosin stained liver sections. […] Scale bar=40 μm.
(§1) Primary hepatocytes from mice were isolated (Snider et al. J Cell Biol 195: 217-29, 2011.; herein incorporated by reference in its entirety). […] Serum ALT levels were determined using a Vetscan-vs2 instrument (ABAXIS) using the comprehensive diagnostic profile cartridge or using Unit for Laboratory Animal Medicine (ULAM) core facility at University of Michigan. […]
Mice were injected with FasL in saline (to induce apoptosis), or with APAP in DMSO (to induced necrosis) or were injected with vehicle (saline or DMSO). The serum and liver histology were then analyzed. For both the APAP and FasL conditions, CPS1 was more easily detected in the serum of the mice and parallels the elevation of ALT (FIG. 4A). […]

[2] = system: primary mouse hepatocytes; assay: Viable cell count by trypan blue staining of treated primary hepatocytes; assay type: cell-based; conditions: FasL 0.5 μg/ml, APAP 1 mM
Procedure: FIG. 2. Primary hepatocytes release CPS1 in response to difference types of liver injury. A: Primary mouse hepatocytes were cultured in the presence of hypoosmotic media (200 mOsm/L), FasL (0.5 μg/ml), and acetaminophen (APAP, 1 mM). The concentrated cell culture media and total cell lysates were used for immunoblotting with antibodies to the indicated proteins. B: After each treatment as in panel A, the viable cell count was determined using trypan blue staining after trypsin treatment. Each bar represents the mean of 10 to 15 fields. […] C: Mouse hepatocytes were challenged with FasL, APAP and hypoosmosis as in Panel A. Cells were fixed and immunostained with CPS1 (red) and counter stained with DAPI (blue). Arrows highlight areas with less dense CPS1 staining. Scale bar=20 μm.
as §1, with “entirety). The liver was perfused with 3-5 ml of perfusion media through the portal vein with a flow rate of 3 ml/min followed by perfusion with 15-20 ml of digestion media containing 150 units/ml of collagenase-II (Worthington) at the same flow rate.” for “entirety).”

liver [3] = conditions: mice fed 0.1% DDC for 10 days, 15 days, 6 weeks, 3 months
Procedure: Serum CPS1 in chronic liver injury. Panel A: The presence of serum CPS1 and HMGB1 was tested in animals exposed to the hepatotoxin DDC for 10 days, 15 days, 6 weeks and 3 months. Corresponding serum ALT values are also included. […] Each lane corresponds to serum from separate mice. Two mice for each time point were shown except the control. Panel B: Hematoxylin and eosin staining of livers from control and DDC-administered mice. Scale bar=40 μm. Panels C and D: Human sera from patients with chronic hepatitis B virus infection (HBV), chronic hepatitis C infection (HCV), or controls were analyzed for the presence of CPS1 and HMGB1. Serum from APAP and from control donors with normal ALT were used as positive and negative controls, respectively. […] Each lane represents separate patients or donors.
To test the CPS1 release during chronic mouse liver injury, mice were fed 0.1% DDC (a porphyrinogenic hepatotoxin) for 10-days, 15-days, 6-weeks and 3-months and serum CPS1 levels were analyzed.

[4] = Half-life of CPS1 in mouse serum after FasL injection (western blot densitometry); assay type: in vivo
Procedure: FIG. 6. CPS1 has a short half-life in mouse serum. In order to determine the half-life of CPS1 in mouse serum, mice (five total) were injected with FasL (0.075 μg/g) and blood was collected from the same animal via tail vain at the indicated time points. Sera were used to determine serum ALT, or mixed with 2× SDS sample buffer to measure circulating serum CPS1 by western blot analysis. CPS1 pixel intensity (CPS1 OD) at each time point was determined by densitometry scanning. Panels A-D: Immunoblots of time-dependent serum CPS1 levels of four individual mice are shown. CPS1 OD and serum ALT values at each time point are indicated. A Coomassie stain of serum is included as loading control. To determine the half-life of serum CPS1, the OD values of 24 h to 32 h of all five mice were used. Assuming an exponential decay, half-life of CPS1 for each time interval was calculated using the equation; Ending amount=Beginning amount/[…]; where n=number of half-lives. […]
as §1

[5] = rats; cited from earlier work

## CC(=O)Nc1ccc(O)cc1 [APAP, acetaminophen]
Liver [1]
  liver histology (hematoxylin and eosin): necrotic cell death
[2]
  cell death (viable cell count, trypan blue): significant cell deaths

## CCOC(=O)C1=C(C)NC(C)=C(C(=O)OCC)C1C [DDC]
Liver [3]
  liver histology (hematoxylin and eosin): early evidence of cell drop off at days 10 and 15

## FasL: Fas ligand, which induces hepatocyte cell death (apoptosis)
Liver [1]
  liver histology (hematoxylin and eosin): marked liver hemorrhage; also recorded: severe hemorrhage formation

B1: CPS1: most abundant mitochondrial matrix protein of liver, urea cycle enzyme; serum biomarker of acute liver injury (protein, UniProt P31327 39-1500, looked up)
Carbamoyl-phosphate synthase …: LSVKAQTAHIVLEDGTKMKGYSFGHPSSVAGEVVFNTGLGGYPEAITDPAYKGQILTMANPIIGNGGAPDTTALDELGLSKYLESNGIKVSGLLVLDYSKDYNHWLATKSLGQWLQEEKVPAIYGVDTRMLTKIIRDKGTMLGKIEFEGQPVDFVDPNKQNLIAEVSTKDVKVYGKGNPTKVVAVDCGIKNNVIRLLVKRGAEVHLVPWNHDFTKMEYDGILIAGGPGNPALAEPLIQNVRKILESDRKEPLFGISTGNLITGLAAGAKTYKMSMANRGQNQPVLNITNKQAFITAQNHGYALDNTLPAGWKPLFVNVNDQTNEGIMHESKPFFAVQFHPEVTPGPIDTEYLFDSFFSLIKKGKATTITSVLPKPALVASRVEVSKVLILGSGGLSIGQAGEFDYSGSQAVKAMKEENVKTVLMNPNIASVQTNEVGLKQADTVYFLPITPQFVTEVIKAEQPDGLILGMGGQTALNCGVELFKRGVLKEYGVKVLGTSVESIMATEDRQLFSDKLNEINEKIAPSFAVESIEDALKAADTIGYPVMIRSAYALGGLGSGICPNRETLMDLSTKAFAMTNQILVEKSVTGWKEIEYEVVRDADDNCVTVCNMENVDAMGVHTGDSVVVAPAQTLSNAEFQMLRRTSINVVRHLGIVGECNIQFALHPTSMEYCIIEVNARLSRSSALASKATGYPLAFIAAKIALGIPLPEIKNVVSGKTSACFEPSLDYMVTKIPRWDLDRFHGTSSRIGSSMKSVGEVMAIGRTFEESFQKALRMCHPSIEGFTPRLPMNKEWPSNLDLRKELSEPSSTRIYAIAKAIDDNMSLDEIEKLTYIDKWFLYKMRDILNMEKTLKGLNSESMTEETLKRAKEIGFSDKQISKCLGLTEAQTRELRLKKNIHPWVKQIDTLAAEYPSVTNYLYVTYNGQEHDVNFDDHGMMVLGCGPYHIGSSVEFDWCAVSSIRTLRQLGKKTVVVNCNPETVSTDFDECDKLYFEELSLERILDIYHQEACGGCIISVGGQIPNNLAVPLYKNGVKIMGTSPLQIDRAEDRSIFSAVLDELKVAQAPWKAVNTLNEALEFAKSVDYPCLLRPSYVLSGSAMNVVFSEDEMKKFLEEATRVSQEHPVVLTKFVEGAREVEMDAVGKDGRVISHAISEHVEDAGVHSGDATLMLPTQTISQGAIEKVKDATRKIAKAFAISGPFNVQFLVKGNDVLVIECNLRASRSFPFVSKTLGVDFIDVATKVMIGENVDEKHLPTLDHPIIPADYVAIKAPMFSWPRLRDADPILRCEMASTGEVACFGEGIHTAFLKAMLSTGFKIPQKGILIGIQQSFRPRFLGVAEQLHNEGFKLFATEATSDWLNANNVPATPVAWPSQEGQNPSLSSIRKLIRDGSIDLVINLPNNNTKFVHDNYVIRRTAVDSGIPLLTNFQVTKLFAEAVQKSRKVDSKSLFHYRQYSAGKAA
[4]; mice injected with FasL 0.075 μg/g, OD values of 24 h to 32 h of five mice, mean±standard error of mean
  average half-life of CPS1 in mouse serum: 126 ± 9 min
[4]; mice, FasL treatment 0.075 μg/g, combination of turnover and ongoing release
  half-life of CPS1 in mouse serum: ~126 min
[5]
  half-life of CPS1: 67 min
